Source: patent US20260062455A1 (INSTITUT PASTEUR, published 2026)

Assays:
[1] = target: T1, MFSD2ACO expressed in HEK-293T.17 cells (LPC-analog transport assay) (human, UniProt Q8NA29 1-543); assay: cell-based or functional assay
T1 chain: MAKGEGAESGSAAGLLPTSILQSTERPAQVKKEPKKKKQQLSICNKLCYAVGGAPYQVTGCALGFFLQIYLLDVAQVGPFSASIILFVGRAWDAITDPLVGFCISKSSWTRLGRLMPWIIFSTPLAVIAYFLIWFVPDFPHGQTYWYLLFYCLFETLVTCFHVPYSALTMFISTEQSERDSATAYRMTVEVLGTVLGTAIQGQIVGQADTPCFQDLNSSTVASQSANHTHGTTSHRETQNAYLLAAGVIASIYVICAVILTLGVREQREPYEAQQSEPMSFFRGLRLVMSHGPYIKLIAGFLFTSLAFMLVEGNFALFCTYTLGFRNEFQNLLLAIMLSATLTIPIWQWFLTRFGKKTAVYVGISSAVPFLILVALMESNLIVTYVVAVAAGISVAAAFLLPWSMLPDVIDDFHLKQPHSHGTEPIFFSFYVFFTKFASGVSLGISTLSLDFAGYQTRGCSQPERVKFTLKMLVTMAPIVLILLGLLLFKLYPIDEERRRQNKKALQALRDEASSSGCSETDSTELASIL

[2] = target: T2, GFP-MFSD2ACO (N-terminal FLAG-tag/GFP fusion of MFSD2ACO, detergent-solubilised lysate) (human, UniProt Q8NA29 1-543); assay: titration of SYNC2-mCherry lysate onto GFP-MFSD2A captured on anti-FLAG resin in DDM/CHS at 4 °C; eluted mCherry/GFP fluorescence fitted to a quadratic binding equation
T2 construct: The methods say only 'MFSD2A'; also called MFSD2A-GFP; not shown: N-terminal FLAG-tag, GFP and PreScission protease cleavage site
T2 chain: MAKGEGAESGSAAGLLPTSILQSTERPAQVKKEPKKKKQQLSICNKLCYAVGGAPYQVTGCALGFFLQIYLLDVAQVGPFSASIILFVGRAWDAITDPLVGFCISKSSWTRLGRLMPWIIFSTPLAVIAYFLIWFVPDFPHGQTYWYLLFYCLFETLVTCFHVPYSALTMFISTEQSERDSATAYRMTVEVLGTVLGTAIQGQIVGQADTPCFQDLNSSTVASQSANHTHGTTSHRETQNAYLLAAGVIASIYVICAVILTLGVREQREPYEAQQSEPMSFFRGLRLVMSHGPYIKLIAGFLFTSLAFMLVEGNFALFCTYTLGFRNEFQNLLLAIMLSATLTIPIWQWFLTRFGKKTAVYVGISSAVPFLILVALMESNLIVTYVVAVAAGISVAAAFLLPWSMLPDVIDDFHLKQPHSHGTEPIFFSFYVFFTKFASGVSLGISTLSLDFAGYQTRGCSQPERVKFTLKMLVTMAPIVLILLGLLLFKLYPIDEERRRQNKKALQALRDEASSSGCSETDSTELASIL
Method: SYNC2 binding to MFSD2A was assayed in clear lysates of detergent-solubilized HEK-293F cells expressing mCherry (C-terminal) and GFP (N-terminal) fusion constructs of SYNC2 and MFSD2A, respectively, that enable protein quantification. Clear cells lysates were obtained by 1-hour solubilization in lysis buffer containing 50 mM HEPES pH 7.4, 200 mM NaCl, 5% v/v glycerol, 1 mM EDTA, protease-inhibitor cocktail, 1% DDM, and 0.2% CHS, followed by centrifugation (3,800g, 20 min). SYNC2-mCherry and GFP-MFSD2A protein concentrations in lysates were determined using purified standards in a micro-plate reader (CLARIOstar-Plus) set at 570/620 and 470/514 (λexcitation/λemission), respectively. MFSD2A-GFP lysate at 500 nM was incubated with 2 ml anti-FLAG M2 resin for 1 hour, fractionated in 8 equal parts placed on gravity columns and washed with 1 ml of wash buffer (50 mM HEPES pH 7.4, 200 mM NaCl, 5% (v/v) glycerol, 0.03% DDM, and 0.006% CHS). SYNC2-mCherry was added from a calibrated stock at 2 μM, and equilibrated for 1 hour. […] Eluted protein was transferred to a 96-well flat-bottom black plate for quantification of GFP and mCherry fluorescence. SYNC-mCherry fluorescence background was determined from samples with anti-FLAG resin that lack MFSD2A-GFP bound. SYNC2-mCherry subtracted fluorescence was fitted to a quadratic binding equation using Sigma Plot (Systat).

[3] = target: T3, MFSD2ACO (thermostable consensus MFSD2A mutant), purified in detergent (human, UniProt Q8NA29 1-543); assay: cryo-EM 2D classes and 3D reconstructions of the purified complex; 3.6 Å map of SYNC2SU-CO bound to MFSD2ACO
T3 construct: Full-length transporter expressed in HEK-293F with an N-terminal FLAG-tag, GFP and PreScission site; also called MFSD2A consensus; MFSD2A consensus design
T3 chain: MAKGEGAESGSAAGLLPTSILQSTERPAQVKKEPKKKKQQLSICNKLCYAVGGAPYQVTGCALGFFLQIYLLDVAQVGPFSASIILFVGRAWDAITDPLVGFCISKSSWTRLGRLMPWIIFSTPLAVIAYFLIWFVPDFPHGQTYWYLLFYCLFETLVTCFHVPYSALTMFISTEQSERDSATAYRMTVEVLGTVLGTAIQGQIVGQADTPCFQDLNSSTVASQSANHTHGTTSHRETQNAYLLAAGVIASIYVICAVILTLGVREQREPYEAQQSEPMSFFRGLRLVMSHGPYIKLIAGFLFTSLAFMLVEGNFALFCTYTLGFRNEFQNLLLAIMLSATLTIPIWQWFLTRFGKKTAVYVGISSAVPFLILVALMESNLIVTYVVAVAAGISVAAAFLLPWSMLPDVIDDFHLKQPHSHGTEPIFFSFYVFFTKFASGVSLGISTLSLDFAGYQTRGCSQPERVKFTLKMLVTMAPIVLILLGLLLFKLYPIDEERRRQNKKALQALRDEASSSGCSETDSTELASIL
Text: For cryo-EM structural determination of MFSD2ACO-SYNC2CO complex, the inventors used SYNC2CO-C43S (SYNC2_CO-C43S) mutant to avoid detachment of surface and transmembrane subunits upon binding to MFSD2ACO. […] However, high flexibility within the complex precluded high-resolution 3D reconstructions. To overcome this problem, the inventors used a smaller box size in order to extract individual components, effectively increasing particle number and sample homogeneity, as it was recently shown in cryo-EM structure determination of human CD20 bound to divalent Fab fragments (Kumar et al., 2020). This approach enabled particle averaging over the three MFSD2ACO molecules in the complex, yielding a cryo-EM map at an overall 3.6 Å resolution of SYNC2_SU-CO bound to MFSD2ACO (FIG. 1F; Table 1; FIG. 7, 8). […] Trimeric SYNC2TM in the post-fusion state was not resolved in 3D cryo-EM reconstructions, likely due to lower number of particles, as well as alignment problems of micelles containing only three flexible transmembrane helices.
MFSD2ACO-SYNC2_CO-C43S purified complex was applied to glow-discharged Au 200 mesh Quantifoil R1.2/1.3 holey carbon grids (Quantifoil), and vitrified using Vitrobot Mark IV (ThermoFisher). Typically, 4 μl of sample at 1.2-1.5 mg/ml were applied to the grids, and the Vitrobot chamber was maintained at 100% humidity and 4° C. […]

B1: SYNC2SU-CO (soluble thermostable consensus SYNC2 fragment with C43S), purified, C-terminal EPEA-tag (ligand)
chain: AYRHPDFPLLEKAQQLLQSTGSPYSTNSWLCTSSSTETPGTAYPASPREWTSIEAELHISYRWDPNLKGLMRPANSLLSTVKQDFPDIRQKPPIFGPIFTNINLMGIAPICVTAKRKNGTNVGTLPSTVCNVTFTVDPNQQTYQTYTHNQFRHQPRFPKPPNITFPQGTLLDKSTRFCQGRPSSCSTRNFWFRPADYNQCLQISNLSSTAEWVLLDQTRNSLFWENKTKGANQSQTPCVQVLAGMTIATSYLGISAVSEFFGTSLTPLFHFHISTCLKTQGAFYICGQSIHQCLPSNWTGTCTIGYVTPDIFIAPEPEA
half-maximal inhibitory concentration (IC50) of Na+-dependent LPCNBD transport in cells [1]: ~200 nM

B2: SYNC2CO-C43S-mCherry (C-terminal mCherry fusion, detergent-solubilised lysate) (ligand)
chain: AYRHPDFPLLEKAQQLLQSTGSPYSTNSWLCTSSSTETPGTAYPASPREWTSIEAELHISYRWDPNLKGLMRPANSLLSTVKQDFPDIRQKPPIFGPIFTNINLMGIAPICVTAKRKNGTNVGTLPSTVCNVTFTVDPNQQTYQTYTHNQFRHQPRFPKPPNITFPQGTLLDKSTRFCQGRPSSCSTRNFWFRPADYNQCLQISNLSSTAEWVLLDQTRNSLFWENKTKGANQSQTPCVQVLAGMTIATSYLGISAVSEFFGTSLTPLFHFHISTCLKTQGAFYICGQSIHQCLPSNWTGTCTIGYVTPDIFIAPGNLSLPIPIYGNSPLPRVRRAIHFIPLLAGLGILAGTGTGIAGITKASLTYSQLSKEIANNIDTMAKALTTMQEQIDSLAAVVLQNRRGLDMLTAAQGGICLALDEKCCFWVNQSGKVQDNIRQLLNQASSLRERATQGWLNWEGTWKWFSWVLPFIGPLVSLLLLLLFGPCLLNLITQFVSSRLQAIKLQTNLSAGRHPRNIQESPF
notes: The methods say only 'SYNC2'; also called SYNC2-mCherry; SYNC-mCherry; not shown: C-terminal mCherry
Kd [2]: ~100 nM

B3: SYNC2CO-C43S (thermostable consensus SYNC2 mutant with additional mutation C43S), purified in detergent (ligand)
chain: AYRHPDFPLLEKAQQLLQSTGSPYSTNSWLCTSSSTETPGTAYPASPREWTSIEAELHISYRWDPNLKGLMRPANSLLSTVKQDFPDIRQKPPIFGPIFTNINLMGIAPICVTAKRKNGTNVGTLPSTVCNVTFTVDPNQQTYQTYTHNQFRHQPRFPKPPNITFPQGTLLDKSTRFCQGRPSSCSTRNFWFRPADYNQCLQISNLSSTAEWVLLDQTRNSLFWENKTKGANQSQTPCVQVLAGMTIATSYLGISAVSEFFGTSLTPLFHFHISTCLKTQGAFYICGQSIHQCLPSNWTGTCTIGYVTPDIFIAPGNLSLPIPIYGNSPLPRVRRAIHFIPLLAGLGILAGTGTGIAGITKASLTYSQLSKEIANNIDTMAKALTTMQEQIDSLAAVVLQNRRGLDMLTAAQGGICLALDEKCCFWVNQSGKVQDNIRQLLNQASSLRERATQGWLNWEGTWKWFSWVLPFIGPLVSLLLLLLFGPCLLNLITQFVSSRLQAIKLQTNLSAGRHPRNIQESPF
modifications: N-glycans at N133, N146, N177, N220, N241, N247 and N312 (all seven predicted sites carry glycans in the structure)
notes: Trimeric full-length envelope protein; also called SYNC2 consensus C43S; SYNC2SU-CO (its surface subunit as resolved in the cryo-EM map)
binding result [3]: binds
